The results in this text go back to patent US20230036503A1, “Fusion Protein, Amino Acid Sequence Thereof, Coding Nucleotide Sequence Thereof, Preparation Method Thereof and Use Thereof” (priority 2019, published 2023).

Entries after “also recorded” stand apart in the source; their conditions may differ. Where only a bound is given, the exact number is not on record here.

The subject of assay [1] is callose accumulation of Arabidopsis. The assay is described as follows: Intensity of immune responses of various fusion proteins: callose fluorescence in Arabidopsis leaves quantified by ImageJ. In kind it is in vivo. The settings on record: 100 nmol final concentration.
Protocol: Computation was conducted through image processing software ImageJ according to obtained callose accumulation fluorescence images, and the immune activation ability of the fusion proteins to the plants was quantified by virtue of the fluorescence intensity. Computing methods were as follows:
Measured IntDen=Integrated Density=Integrated Optical Density;
Measured Area=Image Area;
MD(mean optical density)=IntDen/Area.
Assay [2] has as its system Magaporthe grisea. In kind it is in vivo. The settings on record: rice leaves, 100 nM.
Assay [3] has as its system callose accumulation of Arabidopsis. Nature of the assay: Callose accumulation in Arabidopsis leaves infiltrated with fusion protein or PAMP polypeptide (aniline blue staining). It is filed as in vivo. As to the method: In immune responses of plant cells, callose might accumulate. The callose might enhance the mechanical strength of plant cell walls and block channels through which pathogens spread between the cells, thereby limiting invasion of pathogenic microorganisms. With a model plant Arabidopsis as a material and callose accumulation as immune index, the immune activation abilities of different concentrations of fusion proteins His-MP7 were analyzed and were compared to that of a single PAMP polypeptide. A specific experimental operation was as follows:
Final concentrations of the fusion protein His-MP7 and a polypeptide flg22 were adjusted to be 1 μM, 100 nM and 10 nM respectively, with water being served as a control. Four-week old Arabidopsis leaves were infiltrated with an injection syringe permeation method for 12 h, the treated leaves were collected and put in a 6-well plate, and a suitable amount of washing buffer was added for 4 h incubation. The washing buffer was substituted by an aniline blue staining solution with a final concentration of 0.1 mg/mL for staining at a room temperature in the dark for 1 h, and the callose accumulation was observed using a 10 times objective lens of a fluorescence microscope. Each treatment contained three biological replicates with three repeated experiments.
A final concentration of the fusion protein His-MP7 and each of polypeptides flg22, nlp20, elf18, pip1, pep1, csp22 and flgII-28 was adjusted to be 100 nM, with csp22 and flgII-28 being served as negative controls. The four-week old Arabidopsis leaves were infiltrated with an injection syringe permeation method; and a sample treatment method was the same as mentioned above.

Assay [4] deals with Pseudomonas syringae DC3000. The assay is described as follows: Resistance of Arabidopsis to DC3000 pathogenic bacteria (colony growth in injected leaves).
Protocol: (1) A strain DC3000 of Pseudomonas syringae was inoculated to 20 mL of SOC+str (streptomycin) liquid medium for overnight culture for 14-16 h at 28° C., OD600 was determined, and a product was subjected to gradient dilution until OD600 was 0.00005 to obtain a bacterial solution.
(2) The fusion protein His-MP7 was added in the bacterial solution until a final concentration was 100 nM, and a bacterial solution, to which water was added, was served as a control. Meanwhile, four-week old healthy Arabidopsis leaves were injected with the bacterial solution and were sampled at Day 0 (four leaves from one plant) and Day 3 (five plants, two leaves from each plant) respectively. Each leaf was punched by a puncher. The punched small discs were taken; 500 μL of 10 mM MgCl2 was added at Day 0; the small discs were ground in a 1.5 mL EP tube; and 50 μL of each of four samples in the same treatment was spotted on one SOC+str (streptomycin) solid plate (the plate required to be blow-dried, and then the shape of each spotted sample could be kept) and cultured for 16-24 h at 28° C. Samples were photographed and observed for statistics of colony growth.
(3) At Day 3, the two leaves on each plant of the five plants were punched to take small discs similarly; 250 μL of 10 mM MgCl2 was added; and the small discs were ground in the 1.5 mL EP tube and diluted by MgCl2 stepwise until 1×10^−5.
Assay [5] has as its system Tobacco mosaic virus (TMV). Nature of the assay: Resistance of tobacco plants to Tobacco mosaic virus (disease grading, disease index, control effect).
Protocol: The experiment was divided into an experimental group and a control group (with 20 lines of tobacco plants in each group). After the experimental group was injected with a recombinant protein, viruses were inoculated to the experimental group; and after the control group was injected with the sterile water, the viruses were inoculated to the control group. It was inoculated through the following steps:
(1) Fresh leaves infected with TMV were added to a small amount of sterilized phosphate buffer (1:200) and were ground in a mortar and filtered with sterilized gauze to remove the residues of the infected leaves. The above fresh juice was prepared as an inoculum and a concentration of the inoculum of the TMV was adjusted to obtain an aqueous solution of TMV.
(2) When tobacco seedlings were in the 4-5 true leaves period, fully expanded true leaves were selected; a suitable amount of quartz sands were uniformly scattered on the leaf surfaces; and the leaf surfaces were slightly rubbed by an absorbent ball dipped with the aqueous solution of TMV for 1-2 times and then immediately washed with water.
(3) After inoculation for 21 days, the morbidity of tobacco plants was observed. With each plant as a unit for assessment, the grading standard was as follows:
Grade 0: freedom from disease
Grade 3: newborn leaf had yellow-green stripes parallel to the leaf vein with slightly curling;
Grade 7: plant was dwarfed, leaf had yellowish-white strips with curling, and newborn leaves were twisted and prolapsed and could not be normally expanded; and
Grade 9: plant was dwarfed seriously and subjected to chlorina or died.
A disease index and the control effect were computed with the following methods:
Disease index=[Σ(number of infected plants in various grades×relative grade value)/(total number of plants investigated×9)]×100;
Control effect (%)=[(control disease index-treatment disease index)/control disease index]×100.
Assay [6] relates to oxidative burst immune response in corn leaves. The assay is described as follows: Reactive oxygen species / oxidative burst in corn leaves (DAB staining). It is filed as in vivo. The following applies: 100 nM, corn leaves soaked 48 h, FIG. 4. As for the experimental part: Oxidative burst was considered as one of earliest responses of plants to pathogenic microorganisms and played an important role in defense responses of the plants. […] After the plants were infected by the pathogenic microorganisms, the reactive oxygen species could be produced and accumulate, and oxidative burst could be caused. With plant corns as a material and the reactive oxygen species as an immune index, the immune activation ability of 100 nM fusion protein His-MP7 was analyzed. A specific experimental operation was as follows:
Two-week old corn leaves were taken, the intermediate portion of each leaf was taken, shorn with a length of 5 cm and immersed into 1 μg/mL auxin 6BA solution. It was added with the fusion protein His-MP7 with a final concentration of 100 nM, with an aqueous solution of auxin 6BA being served as a blank control. The intermediate portions were soaked for 48 h, stained for 12 h using 1 mg/mL DAB solution, eluted for 12 h by a washing buffer (ethyl alcohol:acetic acid:glycerin=3:1:1) and observed after being placed for 30 min.

Setting [7] is: 21 days after TMV inoculation, 20 plants per group.

In the case of TP10, the “MD (mean optical density = IntDen/Area) of callose fluorescence” value in assay [1] (H2O 0.002-0.003) is on record as 0.378. The Immune activation result in assay [1] (H2O: No) is recorded as “Yes”.

B1: His-MP7: heptapeptide fusion protein, SEQ ID NO: 15: elf18, csp22, flg22, flgII-28, nlp20, pep1, pip1 in sequence, linkers GAG and AGA, HIS tag (protein)
chain: MGSSHHHHHHSSGLVPRGSHMASMTGGQQMGRDPNSSSVDKLSKEKFERTKPHVNVGTIGGAGAVGTVKWFNAEKGFGFITPDDGAGAQRLSTGSRINSAKDDAAGLQIAGAGESTNILQRMRELAVQSRNDSNSATDREAGAGAIMYSWYFPKDSPVTGLGHRAGAATKVKAKQRGKEKVSSGRPGQHNAGARLASGPSPRGRGH
modifications: his-MP7
In assay [2] (3-4 days, untreated 11.6%), B1 gave a scab area percentage of 1.9%. Moreover, the “infection rate of Magaporthe grisea lowered by” value in assay [2] (versus untreated) was 83.6%. For the same molecule, the “intensity of callose accumulation compared with flg22” value in assay [3] (100 nM His-MP7 versus 1 μM flg22, FIG. 2) is reported as “equivalent to that induced by 1 μM PAMP polypeptide flg22”. The “callose accumulation of Arabidopsis” value in assay [3] (100 nM, leaf infiltration 12 h, FIG. 2) is given as “obviously induced”. Also, the “immune activity effect compared with single PAMP polypeptides (callose accumulation)” value in assay [3] (all at 100 nM, flg22, nlp20, elf18, pip1, pep1, csp22, flgII-28, FIG. 3) is given as “superior to those of all the PAMP polypeptides; also recorded: superior to that of a single PAMP polypeptide”. This molecule also gave a bacterium growth index in assay [4] (100 nM in bacterial solution, Arabidopsis leaves, FIG. 5, control 5.38) of 4.05. Also, the “reduction of growth amount of Pseudomonas syringae DC3000” value in assay [4] (100 nM, versus water control) is given as no less than 10. In addition, in assay [5] (setting [7]), the “Number of Infect Tobacco Plants, 0 grade” value is listed as 1 plant; the “Number of Infect Tobacco Plants, 1 grade” value came to 11 plant; the “Number of Infect Tobacco Plants, 3 grade” value came out at 6 plant; the “Number of Infect Tobacco Plants, 5 grade” value is given as 2 plant. In assay [5] (setting [7]), the “Number of Infect Tobacco Plants, 7 grade” value worked out at 0 plant and the “Number of Infect Tobacco Plants, 9 grade” value was 0 plant. The same molecule returned a Control effect in assay [5] (tobacco, TMV, 21 days, versus H2O control) of 72.5%. In assay [5] (tobacco, TMV, 21 days, H2O control 78.9), this molecule had a Disease index of 21.7. For the same molecule, in assay [6], the “induction of oxidative burst immune response” value is reported as “could induce the oxidative burst immune response”.
